Reference: US20160271157A1, “BETA-CATENIN” (UCL BUSINESS PLC, priority 2013, published 2016)

B1: Wnt5A: Recombinant Wnt peptide purchased from R&D systems (protein, UniProt P41221 62-380, looked up)
Protein Wnt-5a: IIGAQPLCSQLAGLSQGQKKLCHLYQDHMQYIGEGAKTGIKECQYQFRHRRWNCSTVDNTSVFGRVMQIGSRETAFTYAVSAAGVVNAMSRACREGELSTCGCSRAARPKDLPRDWLWGGCGDNIDYGYRFAKEFVDARERERIHAKGSYESARILMNLHNNEAGRRTVYNLADVACKCHGVSGSCSLKTCWLQLADFRKVGDALKEKYDSAAAMRLNSRGKLVQVNSRFNSPTTQDLVYIDPSPDYCVRNESTGSLGTQGRLCNKTSEGMDGCELMCCGRGYDQFKTVQTERCHCKFHWCCYVKCKKCTEIVDQFVCK
B2: Wnt9B: Recombinant Wnt peptide purchased from R&D systems (protein, UniProt O14905 23-357, looked up)
Protein Wnt-9b: SYFGLTGREVLTPFPGLGTAAAPAQGGAHLKQCDLLKLSRRQKQLCRREPGLAETLRDAAHLGLLECQFQFRHERWNCSLEGRMGLLKRGFKETAFLYAVSSAALTHTLARACSAGRMERCTCDDSPGLESRQAWQWGVCGDNLKYSTKFLSNFLGSKRGNKDLRARADAHNTHVGIKAVKSGLRTTCKCHGVSGSCAVRTCWKQLSPFRETGQVLKLRYDSAVKVSSATNEALGRLELWAPARQGSLTKGLAPRSGDLVYMEDSPSFCRPSKYSPGTAGRVCSREASCSSLCCGRGYDTQSRLVAFSCHCQVQWCCYVECQQCVQEELVYTCKH

Columns and labels:
[1] = system: β-catenin translocation to the nucleus; assay: β-catenin immunocytochemistry, MCF7; assay type: cell-based, human; conditions: MCF7 breast cancer cell line
Experimental: (§1) Immunostaining was performed in two different laboratories, independently with the experimenter blind to the identity of the treatment. Either cells used in FluoroDish, post [Ca^2+]i experiments using dyes (see above) or grown in 8 well chamber glass slides (Lab Tek II, Nunc) were used. For Wnt ligand treatment, the culture medium replaced with PBS (without calcium) at 37° C. The experiments were replicated for Wnt ligand or vehicle control as described for [Ca^2+]i measurements. Briefly, Wnt ligands were added and chamber slides incubated at 37° C. for up to 20 min. Chamber wells were washed 3× with 0.5 ml PBS and cells were fixed with 0.5 ml 4% formalin for 30 min at 4° C. Cells were washed 3× with ice cold PBS and stored in 0.5 ml PBS at 4° C. for immunostaining. In some experiments PC3 cells were treated with thaspsigargin as described above.
(§2) For immunostaining cells were washed twice for 5 minutes in TBST (20 mM Tris pH 7.4, 0.9% NaCl, 0.1% Tween 20, Sigma). Cells were then incubated in 20% normal goat serum (NGS)/TBST for 30 min at room temperature, the chambers were drained and cells were incubated with mouse anti-β-catenin (ab22656, Abcam, UK) at 1:500 dilution in NGS/TBST overnight at 4° C. […]
(§3) Fluorescence immunocytochemical staining for β-catenin expression in cell lines was imaged using Olympus Fluoview 1000 Confocal Microscope (Olympus KeyMed) mounted on an Olympus IX81 inverted microscope using a 20×0.7 NA or 40×1.0 NA dry objective with a zoom of ×3.4′,6-diamidino-2-phenylindole (DAPI, nuclear counterstain) was excited at 405 nm with an emission of 415-500 nm; Cy3 (β-catenin label) signal was excited at 561 nm with an emission spectrum between 570-670 nm. […]
(§4) Nuclear co-localization of β-catenin was calculated by importing FV files for untreated, control or treated cells, into colocalization plugin of Fiji software (http://fiji.sc/Fiji) for Cy3 (β-catenin) and DAPI (nuclear) signals. […] Statistical significance between untreated and treated cells was calculated using Mann Whitney U test.

[2] = system: 253J urinary tract (bladder) cancer cell line; assay: Live [Ca2+]i imaging after addition of Wnt ligand, 253J; assay type: cell-based, human; conditions: 253J cells
Experimental: (§5) The imaging protocol was developed in the inventor's laboratory and has been described in detail, elsewhere (Wang at al., (2010) PLoS ONE 5, e10456). Briefly, 100000-200000 PC3, MCF7, 253J or Cos 7 cells were plated on 35 mm FluoroDish (WPI) and grown for 48 h; calcium indicators Fluo-4 (Invitrogen) and FuraRed (Invitrogen) at 1 ng/ml were added to FluoroDish containing only 1 ml of culture medium and incubated for 15-20 min at 37° C. The culture medium was removed and washed (×2) and replaced with 1 ml PBS. Live cell calcium Imaging was performed on an Olympus FluoView FV 1000 confocal microscope (Olympus […]) equipped with a 20× dry objective (numerical aperture=0.75). Calcium indicators were excited with an argon laser line (488 nm) and emissions recorded in the green channel (500-560 nm) for Fluo-4 and red channel (600-700 nm) for FuraRed after addition of vehicle control (PBS) or Wnt X (30-600 ng/ml). Images were acquired every 1.1 or 2.2 seconds for up to 600-800s; image and data acquisition was performed using FluoView 1000 software (Olympus, UK). Fluorescent intensity was measured and data exported as a tab delimited file for further analysis using a spreadsheet. All imaging experiments were performed in duplicate; intracellular calcium at 100 ng/ml was measured in at least 3-12 different passages (passage numbers 25 to 37) of cell line for each Wnt ligand. Wnt 11 was tested in at least 5 different passages at 3 different concentrations. […] The measurements were exported as a tab delimited file into a spreadsheet for further analysis and Fluo4/Fura Red ratios were calculated. […] The time constants (rise, dwell and fall times) were calculated by first fitting the Fluo4/FuraRed ratio to a single Gaussian function (Origin Lab Corp., MA); a lower (10%) and upper (90%) amplitude thresholding method was then used to calculate the time constants (s). Statistical significance was calculated using Mann Whitney U test.

[3] = system: β-catenin translocation to the nucleus; assay: β-catenin immunocytochemistry and nuclear co-localization analysis, PC3; assay type: cell-based; conditions: for Pearson coefficient of nuclear co-localization of β-catenin / expression of β-catenin (immunofluorescence), visible in the nucleus: PC3 cells; for Pearson coefficient of nuclear co-localization of β-catenin: Wnt 100 ng/ml vs control, p<0.001 Mann Whitney test; for expression of β-catenin (immunofluorescence), visible in the nucleus: Wnt ligand 100 ng/ml vs vehicle
Experimental: as §1
For immunostaining cells were washed twice for 5 minutes in TBST (20 mM Tris pH 7.4, 0.9% NaCl, 0.1% Tween 20, Sigma). Cells were then incubated in 20% normal goat serum (NGS)/TBST for 30 min at room temperature, the chambers were drained and cells were incubated with mouse anti-β-catenin (ab22656, Abcam, UK) at 1:500 dilution in NGS/TBST overnight at 4° C. Following two further 5 min washes in TBST sections were incubated in goat anti-mouse peroxidase fab (Abcam, UK) at 1:500 dilution for 30 min at room temperature. Following a further two 5 min washes in TBST cells were incubated with tyramide Cy3 (Perkin Elmer) for 10 min at room temperature. Sections were washed twice for 5 min in TBST before nuclear counterstaining with DAPI. After a final two 5 min washes, the chambers were removed and cover slip placed on slides using Permafluor (Thermo Shandon).
Fluorescence immunocytochemical staining for β-catenin expression in cell lines was imaged using Olympus Fluoview 1000 Confocal Microscope (Olympus KeyMed) mounted on an Olympus IX81 inverted microscope using a 20×0.7 NA or 40×1.0 NA dry objective with a zoom of ×3.4′,6-diamidino-2-phenylindole (DAPI, nuclear counterstain) was excited at 405 nm with an emission of 415-500 nm; Cy3 (β-catenin label) signal was excited at 561 nm with an emission spectrum between 570-670 nm. […] Z-stacks of at least 3 fields per sample were imaged and saved in Olympus FV (OIF or OIB) file format.
Nuclear co-localization of β-catenin was calculated by importing FV files for untreated, control or treated cells, into colocalization plugin of Fiji software (http://fiji.sc/Fiji) for Cy3 (β-catenin) and DAPI (nuclear) signals. Pearson co-relation of colocalization were tabulated for 25-90 cells (from 2-5 different passages of cells) using ROI analysis. Statistical significance between untreated and treated cells was calculated using Mann Whitney U test.

[4] = system: MCF7 breast cancer cell line; assay: Live [Ca2+]i imaging after addition of Wnt ligand, MCF7; assay type: cell-based, human; conditions: MCF7 cells
Experimental: as §5

[5] = system: β-catenin translocation to the nucleus; assay: β-catenin immunocytochemistry, 253J; assay type: cell-based, human; conditions: 253J bladder cancer cell line
Experimental: as §1, §2, §3, §4

Row | Molecule | β-catenin translocation into the nucleus after Wnt treatment [1] | [Ca2+]i release in response to Wnt ligand [2] | Pearson coefficient of nuclear co-localization of β-catenin [3] | expression of β-catenin (immunofluorescence), visible in the nucleus [3] | [Ca2+]i release in response to Wnt ligand [4] | β-catenin translocation into the nucleus after Wnt treatment [5] | translocation of β-catenin into the nucleus after inhibition of Wnt induced [Ca2+]i release ([3]; PC3 cells incubated with thapsigargin)
1 | Wnt10B: Recombinant Wnt peptide purchased from R&D systems | β-catenin translocation into the nucleus | activated [Ca^2+]i release | significant increase | visibly increased | activated [Ca^2+]i release | β-catenin translocation into the nucleus | –
2 | C/C=C(/C)C(=O)O[C@H]1C(C)=C2[C@H]([C@@H]1OC(=O)CCCCCCC)[C@@](C)(OC(C)=O)C[C@H](OC(=O)CCC)[C@@]1(O)[C@H]2OC(=O)[C@@]1(C)O [thapsigargin, reference compound] | – | – | – | – | – | – | reduced the translocation of β-catenin into the nucleus
3 | B1 | β-catenin translocation into the nucleus | activated [Ca^2+]i release | significant increase | visibly increased | activated [Ca^2+]i release | β-catenin translocation into the nucleus | –
4 | B2 | β-catenin translocation into the nucleus | activated [Ca^2+]i release | significant increase | visibly increased | activated [Ca^2+]i release | β-catenin translocation into the nucleus | –
